In this assay the target is Q338H MBP–MUTYH (human). The assay is described as follows: pull-down.

B1: RAD9:RAD1:HUS1 (9–1–1) complex, endogenous in HeLa nuclear extract (complex)
chain 1: MKCLVTGGNVKVLGKAVHSLSRIGDELYLEPLEDGLSLRTVNSSRSAYACFLFAPLFFQQYQAATPGQDLLRCKILMKSFLSVFRSLAMLEKTVEKCCISLNGRSSRLVVQLHCKFGVRKTHNLSFQDCESLQAVFDPASCPHMLRAPARVLGEAVLPFSPALAEVTLGIGRGRRVILRSYHEEEADSTAKAMVTEMCLGEEDFQQLQAQEGVAITFCLKEFRGLLSFAESANLNLSIHFDAPGRPAIFTIKDSLLDGHFVLATLSDTDSHSQDLGSPERHQPVPQLQAHSTPHPDDFANDDIDSYMIAMETTIGNEGSRVLPSISLSPGPQPPKSPGPHSEEEDEAEPSTVPGTPPPKKFRSLFFGSILAPVRSPQGPSPVLAEDSEGEG
chain 2: MPLLTQQIQDEDDQYSLVASLDNVRNLSTILKAIHFREHATCFATKNGIKVTVENAKCVQANAFIQAGIFQEFKVQEESVTFRINLTVLLDCLSIFGSSPMPGTLTALRMCYQGYGYPLMLFLEEGGVVTVCKINTQEPEETLDFDFCSTNVINKIILQSEGLREAFSELDMTSEVLQITMSPDKPYFRLSTFGNAGSSHLDYPKDSDLMEAFHCNQTQVNRYKISLLKPSTKALVLSCKVSIRTDNRGFLSLQYMIRNEDGQICFVEYYCCPDEEVPESES
chain 3: MKFRAKIVDGACLNHFTRISNMIAKLAKTCTLRISPDKLNFILCDKLANGGVSMWCELEQENFFNEFQMEGVSAENNEIYLELTSENLSRALKTAQNARALKIKLTNKHFPCLTVSVELLSMSSSSRIVTHDIPIKVIPRKLWKDLQEPVVPDPDVSIYLPVLKTMKSVVEKMKNISNHLVIEANLDGELNLKIETELVCVTTHFKDLGNPPLASESTHEDRNVEHMAEVHIDIRKLLQFLAGQQVNPTKALCNIVNNKMVHFDLLHEDVSLQYFIPALS
In the case of B1, the percent reduction of HUS1 associated, against wild-type MUTYH worked out at 80% and the percent reduction of RAD9 associated, against wild-type MUTYH was more than 50%.

B2: purified recombinant RAD9:RAD1:HUS1 (9–1–1) complex (complex)
chain 1: B1 chain 1
chain 2: B1 chain 2
chain 3: B1 chain 3
As for B2, the percent reduction of RAD9 bound, against wild-type MUTYH is 50%.

The values above are taken from publication PMC3627602.
